Experimental data from US20260151519A1 (AKTIS ONCOLOGY, published 2026).
Primed or numbered codes have the meaning given here. Where no end group is shown, it is not given here. [ ]: non-standard residue; d: D form. The star is where a group is joined. Biotin = O=C1N[C@H]2[C@H](CS[C@H]2CCCCC(=O)*)N1; Lys(Me3) = C[N+](C)(C)CCCC[C@H](N)C(=O)O; PEG4′ = not defined here

T1: Human Nectin-4 expressed on cells (human, UniProt Q96NY8 32-510)
T1 construct: Endogenous on HT-1376 cells; also called endogenous Nectin-4 on HT-1376 cells; cell surface Nectin-4
T1 sequence: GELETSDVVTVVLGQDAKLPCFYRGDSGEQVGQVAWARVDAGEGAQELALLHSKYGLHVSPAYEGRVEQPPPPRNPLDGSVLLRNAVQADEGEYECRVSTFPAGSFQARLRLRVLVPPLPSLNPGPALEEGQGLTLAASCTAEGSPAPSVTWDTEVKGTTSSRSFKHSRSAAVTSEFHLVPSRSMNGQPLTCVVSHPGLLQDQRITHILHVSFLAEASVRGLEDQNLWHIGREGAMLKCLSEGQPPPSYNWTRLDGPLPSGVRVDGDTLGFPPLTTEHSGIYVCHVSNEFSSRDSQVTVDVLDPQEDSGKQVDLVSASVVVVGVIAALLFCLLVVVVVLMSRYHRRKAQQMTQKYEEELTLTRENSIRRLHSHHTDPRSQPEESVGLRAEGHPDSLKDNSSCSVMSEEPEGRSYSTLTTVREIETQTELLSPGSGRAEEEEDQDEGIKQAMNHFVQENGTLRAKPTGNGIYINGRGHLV

T2: Human Nectin-4 (human, UniProt Q96NY8 32-349, limits assumed)
T2 construct: Protein immobilised on the SPR chip; also called target protein
T2 sequence: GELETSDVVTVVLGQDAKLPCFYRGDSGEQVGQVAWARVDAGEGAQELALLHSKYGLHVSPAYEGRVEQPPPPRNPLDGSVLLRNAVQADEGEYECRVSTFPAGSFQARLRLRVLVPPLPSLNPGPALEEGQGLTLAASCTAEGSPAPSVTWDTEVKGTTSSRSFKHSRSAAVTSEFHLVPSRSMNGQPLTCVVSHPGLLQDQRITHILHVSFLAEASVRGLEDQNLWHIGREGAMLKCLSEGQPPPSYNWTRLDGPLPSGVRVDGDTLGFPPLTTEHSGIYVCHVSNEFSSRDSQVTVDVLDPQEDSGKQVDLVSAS


Assays:
[1] = molecular target: T1, Human Nectin-4 expressed on cells; assay: DELFIA competition against 10 nM C307, HT-1376 cells
Description: (§1) A competition binding assay was utilized to determine the Kᵢ for miniproteins bound to Nectin-4 expressed on the surface of cancer cells. […] Miniprotein incubations occurred for 90 min to reach binding equilibrium. […] After miniprotein incubations, the wells were washed to remove unbound ligand and treated according to manufacturer instructions for a DELFIA® (dissociation-enhanced lanthanide fluorescent immunoassay, Revvity Health Sciences). In brief, washed wells were incubated with 15 μL of 2 M HCl for 2 h at 37° C., after which 17 μL of 2 M NaOH and 30 μL of DELFIA® enhancement solution were added to each well and incubated for an additional 30 min. The remaining Eu reacted with the DELFIA® enhancer solution to generate fluorescence measured on the Envision instrument. Relative fluorescence units (RFUs) were measured as a function of test article concentration in order to calculate an IC50. The Ki can then be calculated using the Cheng-Prusoff equation for converting a measured IC50 to Ki: […]

[2] = molecular target: T1, Human Nectin-4 expressed on cells; assay: competition binding assay (DELFIA, fluorescence at 615 nm) on HT-1376 cells: 12 concentrations of C253 against 10 nM Eu-labelled C307 as the displaced tracer
Description: as §1

Human Nectin-4 = molecular target: T2, Human Nectin-4; assay: SPR, Biacore T200, target immobilised, 1:1 model
Description: Surface plasmon resonance (SPR) analyses were performed using Biacore T200 (GE Healthcare). Target protein (“ligand”) was immobilized to a CM5 Series S sensor chip (Cytiva) using amine-coupling chemistry. Running buffer was 0.05% surfactant P20 in HEPES buffered saline (HBS-P), pH 7.4 (Cytiva). Immobilization was performed at 25° C. Carboxyl groups in each flow cell were activated using a 1:1 mixture of 0.4 M 1-ethyl-3-(3-dimethylaminopropyl)-carbodiimide in water (EDC) and 0.1 M N-hydroxysuccinimide in water (NHS) for 7 minutes. The ligand was prepared in 10 mM sodium acetate pH 5 (Cytiva). Pulsatile injections were made to target a specific immobilization level. Any remaining amine-reactive esters on the chip surface were blocked with a 7-minute injection of 1 M ethanolamine, pH 8.5. Three 10-second pulses of 50 mM sodium hydroxide were then made to remove any unbound ligand. Reference cells were modified using amine coupling chemistry, omitting ligand injection.
Increase in signal (RU) is proportional to an increase in binding events between the analyte and ligand surface. The injection was then stopped, and dissociation was measured. […] Measured association (kₐ, 1/Ms⁻¹) and dissociation (kd, s⁻¹) were fit to a 1:1 binding model to calculate a dissociation equilibrium constant, KD(M) for each analyte.

[3] = molecular target: T1, Human Nectin-4 expressed on cells; assay: flow cytometry dose response, biotinylated C253 detected with Strep-PE, Delta MFI = C253 MFI minus vehicle MFI, HT-1376-P cells
Description: Fluorescent imaging for Nectin-4 binding was conducted using assays as described in Example 3. Briefly, Nectin-4 knockout HT-1376 cells were generated via CRISPR/Cas9 mediated gene deletion followed by single cell cloning. […] Flow cytometry was performed to measure on-target binding to cell surface Nectin-4. […]

Binder	Ki [1] [nM]	IC50 (read off the curve) [2] [nM]	Kd (Human Nectin-4) [nM]	EC50 (read off the curve) [3] [nM]
{Biotin-PEG4′}-CEYDEEFFTALARLRGGDICQYIQA[Lys(Me3)]FQYLPALCIEEILDNLGCS (designed binder, cysteine pairing not given here) [C253]	0.82	~2	0.255	~0.8
{Biotin-PEG4′}-CDYDEQFFTALKRLRGADICEYIQASFQYLPGECIEEILDNLGCS (designed binder, cysteine pairing not given here) [C208]			0.302	
{Biotin-PEG4′}-CDYDEQFFTALKRLRGGDICEYIQASFQYLPGLCIEEILDNLGCS (designed binder, cysteine pairing not given here) [C190]			0.318	
{Biotin-PEG4′}-CDYDEQFFTALARLRGADICEYIQASFQYLPGECIEEILDNLGCS (designed binder, cysteine pairing not given here) [C247]			0.283	
{Biotin-PEG4′}-CEYDEQFFTALKRLRGDDICDYIQASFQYLPGLCIEEILDNLGCS (designed binder, cysteine pairing not given here) [C197]			0.212	
